Patent US11472844B2, “Peptidomimetics, method of synthesis and uses thereof” (priority 2017, dated 2022)
Like-named read-outs stand apart in the source and are kept apart here.

B1: MUB70-Cy5: MUB70 (SEQ ID NO: 11) conjugated to Cy5 (conjugate, listed as Lactobacillus reuteri)
chain: VHVQYIDGETDQMLRQDDLDGYTDETIPYSTAEGIKKFEGDGYELFKDNFPAGEKFDNDDTNDQFYTVIF
modifications: also: conjugated to Cy5 (site not given here)
B2: MUB70: 70 AA peptidic marker of human colonic mucus from L. reuteri MUcus Binding Associated Domains (peptide, listed as Lactobacillus reuteri)
chain: B1 chain

Experiments:
living human neutrophils = assay: Live microscopy of neutrophils infected with Shigella flexneri; format: cell-based; conditions: live cells
Method: Neutrophil infection. Human purified neutrophils were cultured in glass-bottom dishes (Mattek) for live fluorescent microscopy in a RMPI 1640 (Life Technologies) culture medium supplemented with 10% of heat inactivated Human Serum (Sigma-Aldrich). Neutrophils (5.10^5 cell/mL in 2 mL) were infected with exponentially-grown Shigella flexneri 5a pGFP at a Multiplicity Of Infection (MOI) 20 in RMPI 1640 (Life Technologies) culture medium supplemented with 10 mM Hepes (Life Technologies) at 37° C. Infected neutrophils were centrifuged at 2000 rpm for 10 min prior imaging.
Live epifluorescence microscopy. Viable neutrophils infected with S. flexneri pGFP were imaged on a Definite focus live microscope (Zeiss) equipped with a temperature control chamber (37° C.) and a 63× oil immersion objective. Images were acquired every 60 s. Z-stack images were taken with […] step-size increments. Obtained Z-stack images were processed with Fiji software to generate a Movie and the corresponding extracted images are shown in FIG. 16a.

human colonic mucus = assay: Fluorescent labelling of human colonic mucus layer; format: binding; conditions: 1 μg/mL
Method: (§1) Colon explant surgical collection. In summary, human colon segments (ascending, descending, and sigmoid colon) were obtained from fully informed patients undergoing surgery for colon carcinoma and were analyzed anonymously. Patient written consent was obtained, according to the French bioethics law. None of the patients had undergone radiotherapy or chemotherapy. According to the pathologist's examination rules for the longitudinally bisected colon, a healthy segment of tissue, which was distant from the tumor region and devoid of metastatic cells, was removed. Tissues were processed according to the French Government guidelines for research on human tissues and the French Bioethics Act with the authorization no RBM 2009-50.
Fixation and staining procedures. For microscopy studies, purified or cultured cells and polymerized lactoferrin were resuspended onto 24-well plates containing 12 mm coverslips in RMPI 1640+10 mM Hepes (when cultured in the autologous plasma) and centrifuged at 300×g for 10 min. Culture media were removed and cells were fixed in 4% Paraformaldehyde (PFA) for two hours. Fixed cells were washed three times in PBS+0.1% saponin (Sigma-Aldrich), prior immunolabeling with primary antibodies in the same buffer for 1 hour (Triton 0.1% can alternatively be used for cell permeabilization). After three additional washes in PBS+0.1% saponin, secondary antibodies and fluorescent markers were incubated for one hour. […]
(§2) Antibodies, fluorescent markers. For immunofluorescence assay, lactoferrin was detected with a mouse anti-lactoferrin primary monoclonal antibody (Hycult biotech, clone 265-1K1, 1:50 dilution) and an anti-mouse-FITC conjugated secondary antibody (1:1000). Nuclei were detected with DAPI (Life Technologies), Lyophilized MUB40 peptides (MUB40#1 (SEQ ID NO: 3)-Cy5, MUB40#2 (SEQ ID NO: 4)-Cy5, MUB40#3 (SEQ ID NO: 5)-Cy5, MUB40#4 (SEQ ID NO: 6)-Cy5, MUB40#1 (SEQ ID NO: 3)-Dylight, RI-MUB40 (SEQ ID NO: 2)-Cy5, and RI-MUB40 (SEQ ID NO: 2)-Biotin) were solubilized in a phosphate buffer pH8 at a 1 mg/mL concentration and used at a 1:1000 dilution. […]

[1] = tested on: colonic mucinous carcinoma; assay: Mucinous carcinoma immunofluorescent staining; design: species or system human; conditions: together with anti-Muc2 antibody, 1 μg/mL
Method: FIG. 3. Mucinous carcinoma immunofluorescent staining with MUB40 #1 (SEQ ID NO: 3)-Cy5 (MUB40-Cy5) and anti-Muc2 antibody (with a secondary antibody conjugated with FITC).
Muc2 was stained with an anti-Mucin2 antibody (green). Tissue was additionally stained with MUB40-Cy5 (1 μg/mL, magenta). DNA was stained with Dapi (blue).

[2] = Analytical gel filtration (size exclusion chromatography); format: physicochemical; conditions: for relative masses estimated from standard proteins' elution volume: 10 μg/ml in 20 mM phosphate buffer; for relative masses estimated from standard proteins' elution volume / experimental Mr: 150 mM NaCl, pH7.4; for experimental Mr: 20 mM phosphate buffer; for oligomeric organization: phosphate buffer, vs theoretical MW
Method: Size Exclusion Chromatography. Gel filtration was performed using an Agilent 1100 system (Agilent Technologies; Palo Alto, Calif., USA) and monitored by absorbance at 280 nm. MUB40 peptides were solubilized in the gel filtration buffer (20 mM phosphate buffer, 150 mM NaCl, pH7.4) at a concentration of 10 μg/ml, 100 μg/ml, or 1 mg/ml), separately injected on a Yarra™ 3μ SEC-2000 300×7.8 mm column (Phenomenex, Le Pecq, France), and eluted at a 0.5 ml/min flow rate. The column was calibrated with a mixture of standards proteins (ribonuclease A, 13.7 kDa; carbonic anhydrase 29 kDa; ovalbumin 44 kDa; GE Healthcare) complemented with a custom synthetic peptide of our own library (peptide x, 5.1 kDa; Institut Pasteur). The logarithm of the molecular weights were plotted versus the corresponding partition coefficients (Kay=(Ve−Vo)/(Vc−Vo); Ve, elution volume; Vo, void volume; Vc, geometric column volume), giving log(Mr)=2,3108−2,2361Kav as a calibration curve equation.

trypsin = trypsin (Sus scrofa, UniProt P00761); conditions: trypsin digestion, 37°C, pH8, followed up to 24 h
Method: Trypsin proteolysis. MUB40 (SEQ ID NO: 3)-Cy5 and RI-MUB40 (SEQ ID NO: 2)-Cy5 were dissolved in 50 mM ammonium bicarbonate, pH 8. Prior to digestion and owing to the propensity of maleimide derivatives to undergo ring-opening in a basic environment (Fontaine et al., 2015), we incubated both peptides at 37° C. overnight. Ring-opening completion was checked before trypsin addition. […] Lyophilized trypsin (Thermo scientific) was reconstituted using 50 mM acetic acid, diluted with 50 mM ammonium bicarbonate and added to the peptide solution so as to obtain a final peptide concentration of 0.25 mg/mL and a protease to protein ratio of 1:20 (w/w). Samples were directly incubated on the injection sampler thermostated at 37° c. HPLC and LC-MS analyses were performed as previously described above, applying a 15% to 40% linear gradient of acetonitrile in 10 mM ammonium acetate over 20 minutes.
Hydrolysis experiments were done in solution at 37° c., pH8 and monitored by HPLC by measuring the peak area of the remaining intact peptides.

[3] = tested on: Colonic goblet cell granules; assay: Fluorescent labelling of colonic goblet cell granules on fixed slides; format: cell-based, human; conditions: 1 μg/mL
Method: as §1, §2

[4] = Coïc et al., 2012; cited from earlier work

Chain of trypsin (P00761 9-231): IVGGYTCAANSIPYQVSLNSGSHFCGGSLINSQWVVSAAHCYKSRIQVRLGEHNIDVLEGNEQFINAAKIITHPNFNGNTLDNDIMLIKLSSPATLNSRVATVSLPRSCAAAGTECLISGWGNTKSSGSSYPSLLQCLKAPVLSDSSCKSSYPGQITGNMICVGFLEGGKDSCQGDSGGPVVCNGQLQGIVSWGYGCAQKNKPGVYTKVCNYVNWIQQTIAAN

Molecule | relative masses estimated from standard proteins' elution volume [2] | experimental Mr [2] [kDa] | oligomeric organization [2] | further results
CC[C@@H](C)[C@@H](NC(=O)[C@@H](CCCCN)NC(=O)[C@@H](CCCCN)NC(=O)[C@@H](Cc1ccccc1)NC(=O)[C@@H](CCC(=O)O)NC(=O)CNC(=O)[C@@H](CC(=O)O)NC(=O)CNC(=O)[C@@H](Cc1ccc(O)cc1)NC(=O)[C@@H](CCC(=O)O)NC(=O)[C@@H](CC(C)C)NC(=O)[C@@H](Cc1ccccc1)NC(=O)[C@@H](CCCCN)NC(=O)[C@@H](CC(=O)O)NC(=O)[C@@H](CC(N)=O)NC(=O)[C@@H](Cc1ccccc1)NC(=O)[C@H]1CCCN1C(=O)[C@@H](C)NC(=O)CNC(=O)[C@@H](CCC(=O)O)NC(=O)[C@@H](CCCCN)NC(=O)[C@@H](Cc1ccccc1)NC(=O)[C@@H](CC(=O)O)NC(=O)[C@@H](CC(N)=O)NC(=O)[C@@H](CC(=O)O)NC(=O)[C@@H](CC(=O)O)NC(=O)[C@H](NC(=O)[C@@H](CC(N)=O)NC(=O)[C@@H](CC(=O)O)NC(=O)[C@@H](CCC(N)=O)NC(=O)[C@@H](Cc1ccccc1)NC(=O)[C@@H](Cc1ccc(O)cc1)NC(=O)[C@H](NC(=O)[C@H](NC(=O)[C@H](NC(=O)[C@@H](Cc1ccccc1)NC(=O)[C@@H](CS)NC(C)=O)[C@H](C)CC)C(C)C)[C@H](C)O)[C@H](C)O)C(=O)NCC(=O)N[C@H](CCC(=O)O)C(=O)N[C@H](C)C(=O)N[C@@H](C(N)=O)[C@H](C)O [RI-MUB40] | – | – | – | crossing of plasma membrane of living cells (living human neutrophils): do not cross plasma membranes; labelling of / binding to human colonic mucus (human colonic mucus): validated
MUB40#1: 40-amino acid L-peptide, MUB70 C-terminal part, with N-ter added cysteine; L counterpart of RI-MUB40 (CTAEGIKKFEGDGYELFKDNFPAGEKFDNDDTNDQFYTVIF; MUB40-1 probe with Cysteine at N-terminal extremity) | 15.9 | 15.9 | trimer | labelling of colonic mucinous carcinoma [1]: similarly labelled; degradation by trypsin (in words) (trypsin; listed as MUB40): rapidly degraded; degradation by trypsin (in words) (trypsin; listed as MUB40 #1): almost completely degraded within 3 h
MUB40#2: overlapping 40-amino acid peptide covering the MUB70 sequence (CGYTDETIPYSTAEGIKKFEGDGYELFKDNFPAGEKFDNDD; MUB40-2 probe with Cysteine at N-terminal extremity) | 22.0 | 22.0 | tetramers | –
MUB40#3: overlapping 40-amino acid peptide covering the MUB70 sequence (CDQMLRQDDLDGYTDETIPYSTAEGIKKFEGDGYELFKDNF; MUB40-3 probe with Cysteine at N terminal extremity) | 20.5 | 20.5 | tetramers | –
MUB40#4: overlapping 40-amino acid peptide covering the MUB70 sequence (CVHVQYIDGETDQMLRQDDLDGYTDETIPYSTAEGIKKFEG; MUB40-4 probe with Cysteine at N terminal extremity) | 20.4 | 20.4 | tetramers | –
B1 | – | – | – | labelling of colonic goblet cell granules [3]: not the case
B2 | – | – | – | oligomeric organization [4]: trimer
